What was measured:
Experiment in all cases: holdup assay
Set-up in all cases: key: below the threshold = too weak to quantify, mostly under pKd 3.1 to 4
Conditions in all cases: plain residues with an end cap or a label only (N-terminal biotin on a linker: ttds)
[1] = biological target: T1, SYNPO2L, Q9H987
T1 sequence (Q9H987 1-98, limits assumed, looked up): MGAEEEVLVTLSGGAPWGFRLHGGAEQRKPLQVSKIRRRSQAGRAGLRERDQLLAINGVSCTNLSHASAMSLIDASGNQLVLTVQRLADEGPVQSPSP

[2] = biological target: PDLIM4, P50479
[3] = biological target: T2, USH1C_2, Q9Y6N9
T2 sequence (Q9Y6N9 206-303, limits assumed, looked up): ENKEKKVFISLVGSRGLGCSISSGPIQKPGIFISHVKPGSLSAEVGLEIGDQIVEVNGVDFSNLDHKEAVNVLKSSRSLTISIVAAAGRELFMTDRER

[4] = biological target: CNKSR3, Q6P9H4
[5] = biological target: MAGI3_4, Q5TCQ9
[6] = biological target: T3, PTPN13_4, Q12923
T3 sequence (Q12923 1783-1878, limits assumed, looked up): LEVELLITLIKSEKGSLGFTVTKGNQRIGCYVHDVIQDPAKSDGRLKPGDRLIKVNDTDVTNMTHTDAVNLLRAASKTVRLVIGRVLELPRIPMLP

[7] = biological target: TJP1_1, Q07157
[8] = biological target: T4, MPDZ_7, O75970
T4 sequence (O75970 1146-1253, limits assumed, looked up): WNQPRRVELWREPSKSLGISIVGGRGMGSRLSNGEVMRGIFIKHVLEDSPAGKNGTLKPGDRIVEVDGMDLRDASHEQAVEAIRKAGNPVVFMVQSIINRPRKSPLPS

[9] = biological target: SDCBP_1, O00560
[10] = biological target: DLG5_2, Q8TDM6
[11] = biological target: T5, NHERF1_2, O14745
T5 sequence (O14745 149-244, limits assumed, looked up): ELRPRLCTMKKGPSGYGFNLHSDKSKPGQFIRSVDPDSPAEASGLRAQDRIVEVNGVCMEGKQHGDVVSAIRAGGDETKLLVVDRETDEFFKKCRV

[12] = biological target: T6, MAGI2_1, Q86UL8
T6 sequence (Q86UL8 12-111, limits assumed, looked up): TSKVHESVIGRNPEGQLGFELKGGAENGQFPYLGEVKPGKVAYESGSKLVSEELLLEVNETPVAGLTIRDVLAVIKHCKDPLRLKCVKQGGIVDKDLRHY

[13] = biological target: T7, SHANK2, Q9UPX8
T7 sequence (Q9UPX8 621-730, limits assumed, looked up): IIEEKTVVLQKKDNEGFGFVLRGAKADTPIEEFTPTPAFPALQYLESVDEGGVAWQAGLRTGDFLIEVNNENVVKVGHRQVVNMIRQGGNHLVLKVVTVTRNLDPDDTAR

[14] = biological target: T8, APBA3_2, O96018
T8 sequence (O96018 480-570, limits assumed, looked up): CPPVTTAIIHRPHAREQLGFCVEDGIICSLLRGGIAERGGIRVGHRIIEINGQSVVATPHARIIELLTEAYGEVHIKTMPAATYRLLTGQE

[15] = biological target: T9, TJP3_2, O95049
T9 sequence (O95049 190-282, limits assumed, looked up): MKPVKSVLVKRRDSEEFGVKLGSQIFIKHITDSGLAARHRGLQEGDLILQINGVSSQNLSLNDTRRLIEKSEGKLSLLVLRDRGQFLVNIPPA

[16] = biological target: T10, MPP5, Q8N3R9
T10 sequence (Q8N3R9 251-346, limits assumed, looked up): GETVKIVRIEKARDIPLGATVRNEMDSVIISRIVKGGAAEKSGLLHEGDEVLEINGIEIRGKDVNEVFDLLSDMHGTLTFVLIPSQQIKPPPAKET

[17] = biological target: MAGIX, Q9H6Y5
[18] = biological target: T11, PDZD7_2, Q9H5P4
T11 sequence (Q9H5P4 205-303, limits assumed, looked up): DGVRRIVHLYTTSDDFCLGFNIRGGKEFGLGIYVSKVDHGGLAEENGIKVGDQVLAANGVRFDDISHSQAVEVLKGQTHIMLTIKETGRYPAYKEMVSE

[19] = biological target: T12, INTU, Q9ULD6
T12 sequence (Q9ULD6 180-273, limits assumed, looked up): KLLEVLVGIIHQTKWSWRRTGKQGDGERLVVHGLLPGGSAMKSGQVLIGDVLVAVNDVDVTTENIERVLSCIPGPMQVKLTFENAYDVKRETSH

[20] = biological target: AHNAK2, Q8IVF2
[21] = biological target: T13, MPDZ_6, O75970
T13 sequence (O75970 1003-1099, limits assumed, looked up): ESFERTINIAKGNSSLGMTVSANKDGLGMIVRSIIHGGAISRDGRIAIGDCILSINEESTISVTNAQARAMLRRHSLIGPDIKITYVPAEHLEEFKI

[22] = biological target: T14, PDZD2_4, O15018
T14 sequence (O15018 723-823, limits assumed, looked up): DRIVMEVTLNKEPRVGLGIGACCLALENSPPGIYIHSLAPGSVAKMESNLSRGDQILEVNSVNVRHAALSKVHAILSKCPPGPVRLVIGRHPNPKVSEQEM

Sequence of MAGIX, Q9H6Y5 (Q9H6Y5 118-211): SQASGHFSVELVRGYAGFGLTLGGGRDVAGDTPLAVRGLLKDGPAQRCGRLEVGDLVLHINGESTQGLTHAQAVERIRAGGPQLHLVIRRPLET
Sequence of PDLIM4, P50479 (P50479 1-83): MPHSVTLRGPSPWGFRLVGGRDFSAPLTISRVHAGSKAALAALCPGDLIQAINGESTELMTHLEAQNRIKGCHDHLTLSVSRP
Sequence of TJP1_1, Q07157 (Q07157 18-120): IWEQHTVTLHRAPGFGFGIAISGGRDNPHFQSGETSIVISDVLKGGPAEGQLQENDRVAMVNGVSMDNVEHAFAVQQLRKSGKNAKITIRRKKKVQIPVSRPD
Sequence of DLG5_2, Q8TDM6 (Q8TDM6 714-800): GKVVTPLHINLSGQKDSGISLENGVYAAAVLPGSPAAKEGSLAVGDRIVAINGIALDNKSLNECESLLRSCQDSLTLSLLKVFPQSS
Sequence of CNKSR3, Q6P9H4 (Q6P9H4 203-303): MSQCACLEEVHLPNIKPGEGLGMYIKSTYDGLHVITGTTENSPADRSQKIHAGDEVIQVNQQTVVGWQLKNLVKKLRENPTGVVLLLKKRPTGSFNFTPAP
Sequence of SDCBP_1, O00560 (O00560 111-198): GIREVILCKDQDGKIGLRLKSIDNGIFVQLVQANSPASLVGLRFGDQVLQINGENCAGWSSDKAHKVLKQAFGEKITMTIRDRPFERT
Sequence of MAGI3_4, Q5TCQ9 (Q5TCQ9 716-815): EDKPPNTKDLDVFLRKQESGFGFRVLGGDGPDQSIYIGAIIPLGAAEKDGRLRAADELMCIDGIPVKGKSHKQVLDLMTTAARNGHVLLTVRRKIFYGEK
Sequence of AHNAK2, Q8IVF2 (Q8IVF2 108-193): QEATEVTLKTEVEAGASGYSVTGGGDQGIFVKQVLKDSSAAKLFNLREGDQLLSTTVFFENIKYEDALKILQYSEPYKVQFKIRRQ

- pKd [1]: below the threshold
- pKd [2]: below the threshold
- pKd [3]: below the threshold
- pKd [4]: below the threshold
- pKd [5]: below the threshold
- pKd [6]: below the threshold
- pKd [7]: below the threshold
- pKd [8]: below the threshold
- pKd [9]: below the threshold
- pKd [10]: 4.26
- pKd [11]: below the threshold
- pKd [12]: 3.74
- pKd [13]: below the threshold
- pKd [14]: below the threshold
- pKd [15]: below the threshold
- pKd [16]: below the threshold
- pKd [17]: below the threshold
- pKd [18]: below the threshold
- pKd [19]: below the threshold
- pKd [20]: below the threshold
- pKd [21]: below the threshold
- pKd [22]: below the threshold
Binder: PSRDRKETSI [RALBP1, Q15311]

Reference: paper PMC9482650, “Quantitative fragmentomics allow affinity mapping of interactomes” (Nature Communications, 2022)
